Measured values reported in US20260167959A1, “APTAZYME-BASED REGULATABLE GENE EXPRESSION SYSTEMS” (REJUVENATE BIO INC, priority 2022, published 2026).

System: Renilla luciferase RNA
Assay: Barcoded aptazyme variant library screen: un-cleaved Renilla luciferase RNA by barcode read counts, HEK293-T cells
Assay type: cell-based
Details: un-cleaved Renilla luciferase RNA, HEK293-T cells cultured with 1 mM theophylline (ON) over without theophylline (OFF); barcode read counts, triplicate
How it was run: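 Aptazyme variants (seven theophylline aptamers inserted after each T3H48 ribozyme nucleotide, 9-nt barcoded) cloned into the 3′ UTR of Renilla luciferase in psiCHECK-2; cells cultured ± theophylline, in triplicate. RNA and DNA barcodes amplified and sequenced; normalized read counts gave un-cleaved RNA fraction and ON/OFF fold-change.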

Molecule	Fold change in RNA expression between the ON state and the OFF state [fold]
RA105 (nucleic acid, expressed or natural sequence) DNA: GCGCGTCCTGGAGAATACCAGCATCGTCTTGATGCCCTTGGAAGTCTCGATTCGCGGAAACGCGTACATCCAGCTGACGAGTCCCAAATAGGACGAAACGCGC	1.6
RA011 (nucleic acid, expressed or natural sequence) DNA: GCGCGTCCTGGATTCGCGGAAACGCGTACATCCAGCTGACGAGTCCCGGAATACCAGCATCGTCTTGATGCCCTTGGAAGTCCGCAAATAGGACGAAACGCGC	3.6
RA110 (nucleic acid, expressed or natural sequence) DNA: GCGCGTCCTGGGGAATACCAGCATCGTCTTGATGCCCTTGGAAGTCCATTCGCGGAAACGCGTACATCCAGCTGACGAGTCCCAAATAGGACGAAACGCGC	1.6
RA109 (nucleic acid, expressed or natural sequence) DNA: GCGCCGAGAATACCAGCATCGTCTTGATGCCCTTGGAAGTCTCGGTCCTGGATTCGCGGAAACGCGTACATCCAGCTGACGAGTCCCAAATAGGACGAAACGCGC	1.6
RA104 (nucleic acid, expressed or natural sequence) DNA: GCGCGTCCTGGATTCGCGGAAACGCGTACATCCAGCTGACGAGTCCCAAATCGAGAATACCAGCATCGTCTTGATGCCCTTGGAAGTCTCGAGGACGAAACGCGC	1.6
RA111 (nucleic acid, expressed or natural sequence) DNA: GCGCGTCCTAGTGATACCAGCATCGTCTTGATGCCCTTGGCAGCACTGGATTCGCGGAAACGCGTACATCCAGCTGACGAGTCCCAAATAGGACGAAACGCGC	1.6
RA010 (nucleic acid, expressed or natural sequence) DNA: GCGCGTCCTGGACGAGAATACCAGCATCGTCTTGATGCCCTTGGAAGTCTCGTTCGCGGAAACGCGTACATCCAGCTGACGAGTCCCAAATAGGACGAAACGCGC	3.6
RA118 (nucleic acid, expressed or natural sequence) DNA: GCGCGTCCTGGATTCGCGGAAACGCGTACATCCAGCTGACGAGTCCCAAATAGGACGAGAGAATACCAGCATCGTCTTGATGCCCTTGGAAGTCTCAACGCGC	1.5
RA103 (nucleic acid, expressed or natural sequence) DNA: GCGCGTCCTGGATTCGCGGAAACGCGTACATCCAGCTGACGGAATACCAGCATCGTCTTGATGCCCTTGGAAGTCCGAGTCCCAAATAGGACGAAACGCGC	1.6
RA114 (nucleic acid, expressed or natural sequence) DNA: GCGCGTCCTGGATTCGCGGAAACGCGTACATCCAGCTGACGAGTCCCAAATAGGACGAGGAATACCAGCATCGTCTTGATGCCCTTGGAAGTCCAACGCGC	1.5
RA100 (nucleic acid, expressed or natural sequence) DNA: GCGCGTCCTGGATTCGCGGAAACGCGTACATCCAGCTGACCGGAATACCAGCATCGTCTTGATGCCCTTGGAAGTCCGGAGTCCCAAATAGGACGAAACGCGC	1.6
RA113 (nucleic acid, expressed or natural sequence) DNA: GCGCGTCCTGGATTCGCGGAAACGCGTACATCCAGCTGACGAGTCCCAAATAGGACGAAACGCGC	1.5
RA101 (nucleic acid, expressed or natural sequence) DNA: GCGCGTCCTGGATTCGCGGAAACGCGTACATCCAGCTGACGAGTCCCAAATAGGACGAACGGAATACCAGCATCGTCTTGATGCCCTTGGAAGTCCGACGCGC	1.6
RA108 (nucleic acid, expressed or natural sequence) DNA: GCGCGTCCTGGATTCGCGGCCGGAATACCAGCATCGTCTTGATGCCCTTGGAAGTCCGGAAACGCGTACATCCAGCTGACGAGTCCCAAATAGGACGAAACGCGC	1.6
RA102 (nucleic acid, expressed or natural sequence) DNA: GCGCGTCGGAATACCAGCATCGTCTTGATGCCCTTGGAAGTCCCTGGATTCGCGGAAACGCGTACATCCAGCTGACGAGTCCCAAATAGGACGAAACGCGC	1.6
RA106 (nucleic acid, expressed or natural sequence) DNA: GCGCGTCCTGGATTCGCGGAAACGCGTACATCCAGCTGACCGGAATACCAGCATCGTCTTGATGCCCTTGGAAGTCCGGCGAGTCCCAAATAGGACGAAACGCGC	1.6
RA117 (nucleic acid, expressed or natural sequence) DNA: GCGCGTCCTGGATCGGAATACCAGCATCGTCTTGATGCCCTTGGAAGTCCGTCGCGGAAACGCGTACATCCAGCTGACGAGTCCCAAATAGGACGAAACGCGC	1.5
RA115 (nucleic acid, expressed or natural sequence) DNA: GCGCGTCCTGGATTCGCGGAAACGCGTACATCCAGCTGACGAGTCCCAAATAGGACGAGAATACCAGCATCGTCTTGATGCCCTTGGAAGTCTAAACGCGC	1.5
RA112 (nucleic acid, expressed or natural sequence) DNA: GCGCGTCCTGGATTCGCGGAAACGCGTACATCCAGGGAATACCAGCATCGTCTTGATGCCCTTGGAAGTCCCTGACGAGTCCCAAATAGGACAAAACGCGC	1.5
RA107 (nucleic acid, expressed or natural sequence) DNA: GCGCGTCCTGGATTCGCGGAAACGCGTACATCCCGGAATACCAGCATCGTCTTGATGCCCTTGGAAGTCCGAGCTGACGAGTCCCAAATAGGACGAAACGCGC	1.6
RA116 (nucleic acid, expressed or natural sequence) DNA: GCGCGTCCTGGATTCGCGGAAACGCGTACATCCAGCTGACGAGTCCCAAATAGGGAGAATACCAGCATCGTCTTGATGCCCTTGGAAGTCTCACGAAACGCGC	1.5
